B1: 5-hydroxytryptamine receptor 2C (Homo sapiens), P28335-1 (parent)
chain: MVNLRNAVHSFLVHLIGLLVWQSDISVSPVAAIVTDIFNTSDGGRFKFPDGVQNWPALSIVIIIIMTIGGNILVIMAVSMEKKLHNATNYFLMSLAIADMLVGLLVMPLSLLAILYDYVWPLPRYLCPVWISLDVLFSTASIMHLCAISLDRYVAIRNPIEHSRFNSRTKAIMKIAIVWAISIGVSVPIPVIGLRDEEKVFVNNTTCVLNDPNFVLIGSFVAFFIPLTIMVITYCLTIYVLRRQALMLLHGHTEEPPGLSLDFLKCCKRNTAEEENSANPNQDQNARRRKKKERRPRGTMQAINNERKASKVLGIVFFVFLIMWCPFFITNILSVLCEKSCNQKLMEKLLNVFVWIGYVCSGINPLVYTLFNKIYRRAFSNYLRCNYKVEKKPPVRQIPRVAATALSGRELNVNIYRHTNEPVIEKASDNEPGIEMQVENLELPVNPSSVVSERISSV

Variants of: B1
Conditions: with GHSR

Row | effect of a mutation on the interaction | Variant
1 | increasing interaction strength | I156V;N158S;I160V
